According to patent US11786477B2, “Fibrin particles and methods of making the same” (NORTH CAROLINA STATE UNIVERSITY, priority 2017, dated 2023):

Tests used:
[1] = system: epithelial dorsal dermal wounds; assay: In vivo dermal wound healing in mice; details: C57BF/6 mice; for 3-day average dermal area closure: 4 mm biopsy punch wounds, first 3 days; for slope of linear fit of average % normalized wound area: assuming linear healing rate of the first 3 days
Protocol: In vivo validation that fibrin nanoparticles can assist wound healing was performed in mice. Dermal wounds were created and the rate of healing measured over several days. Two epithelial dorsal dermal wounds were created in10-week-old healthy male […]/6 mice (Charles River Faboratories Wilmington, Mass.) using a 4 mm diameter biopsy punch. The skin was excised and the inner […] was removed using surgical tools. Wound healing due to skin refolding was prevented by stitching the surrounding skin to a sterilized silicone ring. The annular silicone ring was laser cut from a silicone sheet acquired from Grace Bio-Fabs, Bend, Oreg., to a required inner diameter of 4.9 mm. The silicone ring was held in position with stationary glue and stitches. […] Each wound was immediately imaged using a handheld Nikon camera and separately treated with control 0.9% saline, bulk fibrin gel (400 (μg), FBN (20 (μg), or FBN-KGF (20 μg at the highest concentration). After treatment, the wound was covered with translucent moisture responsive catheter dressing (IV3000, Smith & Nephew, Andover, Mass.) attached over the silicone ring. The porous sheet was also laser cut to the required dimensions to aid the surgeon and to match the wound area. The wound area was imaged using a handheld Nikon camera every 24 hours after removing the translucent dressing. Image analysis of the wound was performed in ImageJ and the scale was measured using the known inner diameter of the silicone ring. The % change in wound area on each day was compared its wound area in day 0 (day of biopsy). The rate of wound healing was quantified by plotting averaged % normalized wound area for each wound treatment. The slope of a linear fit of the average % normalized wound area for the first 3 days post biopsy was calculated in Prism and 2-way Anova statistics were performed to compare the slopes of each treatment (FIG. 9).

[2] = system: Human dermal fibroblasts; assay: In vitro 3D collagen gel wound model, cell migration into biopsied wound; type: cell-based; details: 3D collagen gels, 20 μl sample into biopsied region, compared with saline and free KGF controls
Protocol: Human dermal fibroblasts (500,000 cells/ml) were embedded in 3D collagen gels (3 mg/ml) in serum-free culture media. Using biopsy punches, “wounds” 2 mm in diameter were created with approximately 0.5-1 mm depth. The biopsied 3D wounds were filled with fibrin nanoparticles (FBN), FBN with attached Keratinocyte Growth Factor (FBN-KGF) or saline (controls). The number of cells migrating into the hole from the surrounding 3D collagen gel was counted every 18-24 hours. Data from each sample was normalized to its biopsy area (in mm^2). The cell migration rate was measured by counting cell numbers within the normalized biopsy area (# cells/unit area) on each day. Each treatment was compared with saline and KGF only controls. […] Bulk fibrin sealants require high concentrations of fibrinogen and thrombin in order to induce fast polymerization at the surgical/wound site; by delivering prepolymerized FBNs we are able to circumvent this issue and without inhibiting migration.

B1: FBN-KGF: Keratinocyte growth factor covalently coupled to FBN using carbodiimide and N-hydroxysulfosuccinimide (conjugate, UniProt P21781 32-194, looked up)
Fibroblast growth factor 7: CNDMTPEQMATNVNCSSPERHTRSYDYMEGGDIRVRRLFCRTQWYLRIDKRGKVKGTQEMKNNYNIMEIRTVAVGIVAIKGVESEFYLAMNKEGKLYAKKECNEDCNFKELILENHYNTYASAKWTHNGGEMFVALNQKGIPVRGKKTKKEQKTAHFLPMAIT
modifications: coupled to FBN nanoparticles
notes: Keratinocyte growth factor covalently coupled to FBN using carbodiimide and N-hydroxysulfosuccinimide
[1]
  3-day average dermal area closure: 48±9%
  slope of linear fit of average % normalized wound area: −16±3
[2]
  cell recruitment / cell migration into 3D wound: significantly enhanced cell recruitment and or cell proliferation

B2: free KGF: Keratinocyte growth factor (CYT-219, Prospec Protein Specialist) (protein, UniProt P21781 32-194, looked up)
Fibroblast growth factor 7: CNDMTPEQMATNVNCSSPERHTRSYDYMEGGDIRVRRLFCRTQWYLRIDKRGKVKGTQEMKNNYNIMEIRTVAVGIVAIKGVESEFYLAMNKEGKLYAKKECNEDCNFKELILENHYNTYASAKWTHNGGEMFVALNQKGIPVRGKKTKKEQKTAHFLPMAIT
[1]
  3-day average dermal area closure: 42±12%
  slope of linear fit of average % normalized wound area: −14±2
